Data taken from the Human Domainome abundance scans (Beltran et al. 2025).
± gives the uncertainty stated by the source.

B1: Retinoic acid receptor beta, residues 85 to 161; numbered along this chain, P10826 (parent)
chain: YKPCFVCQDKSSGYHYGVSACEGCKGFFRRSIQKNMIYTCHRDKNCVINKVTRNRCQYCRLQKCFEVGMSKESVRND

Variants of: B1
Experiment: abundance fitness (aPCA) (normalised: wild type 0, dead -1); higher = more abundant; growth selection in yeast, the domain comes from the species named
Conditions: Homo sapiens

Abundance fitness, by site and new letter:
R53: K 0.071 ± 0.063 | I 0.127 ± 0.074 | T -0.002 ± 0.06 | D -0.018 ± 0.061 | P 0.103 ± 0.054 | V 0.211 ± 0.035 | Y 0.116 ± 0.068 | H 0.016 ± 0.11 | E 0.102 ± 0.046 | Q 0.19 ± 0.068 | A 0.183 ± 0.039 | L 0.148 ± 0.037 | M 0.195 ± 0.045 | G 0.003 ± 0.035 | W -0.026 ± 0.053 | C 0.084 ± 0.071 | N 0.123 ± 0.082 | F 0.057 ± 0.079 | S 0.126 ± 0.042
L61: C -0.657 ± 0.16 | M -0.023 ± 0.045 | S -0.995 ± 0.15 | F -0.13 ± 0.083 | K -0.946 ± 0.2 | R -0.8 ± 0.086 | V -0.499 ± 0.059 | W -0.605 ± 0.078 | E -0.635 ± 0.083 | P -0.754 ± 0.19 | G -0.605 ± 0.069 | Q -0.336 ± 0.088 | I -0.207 ± 0.087 | A -0.591 ± 0.077 | D -0.516 ± 0.14 | Y -0.181 ± 0.098 | H -0.503 ± 0.33
C59: Y -0.831 ± 0.33 | H -0.817 ± 0.2 | Q -0.983 ± 0.3 | P -0.777 ± 0.18 | F -0.872 ± 0.26 | V -0.941 ± 0.14 | R -0.869 ± 0.15 | S -0.294 ± 0.084 | W -0.823 ± 0.21 | G -0.758 ± 0.12 | E -0.916 ± 0.23 | K -0.998 ± 0.28 | L -0.84 ± 0.12 | M -0.732 ± 0.15 | N -0.834 ± 0.33 | A -0.619 ± 0.097 | T -0.499 ± 0.15 | I -0.494 ± 0.23
C56: R -0.928 ± 0.1 | K -0.978 ± 0.24 | A -1.16 ± 0.22 | P -0.763 ± 0.3 | H -0.581 ± 0.32 | W -0.893 ± 0.13 | Y -0.567 ± 0.19 | I -1.05 ± 0.42 | S -0.749 ± 0.11 | E -0.703 ± 0.11 | G -0.773 ± 0.066 | L -0.907 ± 0.14 | T -0.668 ± 0.18 | M -0.768 ± 0.17 | N -0.953 ± 0.37 | F -0.946 ± 0.31 | D -0.623 ± 0.23
R55: K 0.198 ± 0.048 | N 0.26 ± 0.065 | C 0.102 ± 0.093 | A 0.18 ± 0.043 | S 0.265 ± 0.042 | M 0.25 ± 0.045 | I 0.155 ± 0.069 | D 0.244 ± 0.065 | F -0.343 ± 0.18 | G 0.262 ± 0.032 | P 0.218 ± 0.061 | H 0.205 ± 0.096 | T 0.239 ± 0.048 | Y 0.077 ± 0.07 | V 0.227 ± 0.036 | W 0.149 ± 0.048 | L 0.183 ± 0.038 | E 0.277 ± 0.043
R60: N -0.845 ± 0.22 | C -0.155 ± 0.065 | I -0.653 ± 0.16 | W 0.114 ± 0.044 | L 0.21 ± 0.035 | M 0.199 ± 0.038 | D -0.901 ± 0.21 | Q -0.003 ± 0.052 | P -0.722 ± 0.14 | E -0.598 ± 0.14 | S -0.583 ± 0.08 | G -0.491 ± 0.069 | Y -0.002 ± 0.062 | T -0.001 ± 0.052 | V -0.369 ± 0.052 | K -0.039 ± 0.052
Y58: C 0.046 ± 0.085 | R -0.325 ± 0.057 | W 0.107 ± 0.051 | Q -0.259 ± 0.084 | A 0.107 ± 0.046 | H -0.111 ± 0.13 | P -1.13 ± 0.32 | K -0.147 ± 0.074 | T -0.501 ± 0.16 | I -0.898 ± 0.32 | G -0.134 ± 0.039 | E -0.214 ± 0.063 | D -0.131 ± 0.077 | M -0.237 ± 0.08 | N -0.634 ± 0.17 | L -0.545 ± 0.087 | V -0.679 ± 0.1
Q57: D 0.353 ± 0.063 | K -0.245 ± 0.065 | N -0.021 ± 0.098 | S 0.144 ± 0.041 | G 0.2 ± 0.028 | V -0.385 ± 0.053 | Y 0.163 ± 0.07 | A 0.158 ± 0.04 | C 0.078 ± 0.057 | W 0.104 ± 0.038 | T -0.251 ± 0.075 | E 0.268 ± 0.045 | H 0.079 ± 0.088 | P 0.141 ± 0.07
V51: K -0.013 ± 0.063 | Q 0.076 ± 0.05 | N -0.014 ± 0.077 | E 0.171 ± 0.083 | S 0.011 ± 0.046 | F 0.13 ± 0.06 | L 0.238 ± 0.035 | T 0.019 ± 0.057 | Y -0.003 ± 0.1 | I 0.073 ± 0.062 | R -0.146 ± 0.052 | M 0.166 ± 0.056 | P -0.218 ± 0.069 | W 0.282 ± 0.06 | D 0.255 ± 0.091
C64: M -0.412 ± 0.067 | Y -1.17 ± 0.34 | I -0.729 ± 0.36 | R -0.732 ± 0.059 | N -0.969 ± 0.42 | H -0.646 ± 0.15 | T -0.769 ± 0.14 | D -0.996 ± 0.25 | K -0.885 ± 0.14 | S -0.461 ± 0.06 | L -0.734 ± 0.09 | E -0.799 ± 0.088 | A -0.329 ± 0.052 | G -0.658 ± 0.045 | P -0.689 ± 0.18 | V -0.628 ± 0.084 | Q -0.426 ± 0.1
S70: L 0.071 ± 0.053 | C -0.076 ± 0.067 | M -0.115 ± 0.092 | I 0.262 ± 0.14 | P -0.304 ± 0.094 | H 0.022 ± 0.099 | A -0.047 ± 0.047 | F -0.111 ± 0.089 | D -0.085 ± 0.067 | K 0.078 ± 0.05 | Q -0.009 ± 0.074 | E 0.039 ± 0.052 | G -0.184 ± 0.037 | R -0.053 ± 0.039
F65: W -0.174 ± 0.045 | V -0.019 ± 0.034 | D -0.423 ± 0.093 | T -0.02 ± 0.048 | S -0.31 ± 0.052 | C -0.197 ± 0.082 | N -0.128 ± 0.096 | G -0.442 ± 0.037 | Q -0.156 ± 0.057 | R -0.22 ± 0.035 | H -0.253 ± 0.14 | A -0.291 ± 0.047 | I 0.119 ± 0.075 | K -0.081 ± 0.048 | L 0.014 ± 0.036 | E -0.024 ± 0.042 | P -0.542 ± 0.12 | Y -0.009 ± 0.087 | M 0.026 ± 0.044
M69: G -0.813 ± 0.11 | D -0.498 ± 0.26 | R -0.741 ± 0.11 | F -0.406 ± 0.27 | A -0.81 ± 0.16 | E -0.751 ± 0.21 | C -0.31 ± 0.16 | I -0.142 ± 0.38 | W -0.235 ± 0.066 | V -0.591 ± 0.096 | N -0.725 ± 0.28 | P -0.917 ± 0.39 | Y -0.588 ± 0.32 | T -0.515 ± 0.21 | K -0.983 ± 0.35
G68: N -0.338 ± 0.12 | Y -1.05 ± 0.41 | A -0.804 ± 0.11 | C -0.698 ± 0.16 | T -0.687 ± 0.12 | R -0.681 ± 0.078 | I -0.95 ± 0.24 | E -0.763 ± 0.14 | H -0.743 ± 0.24 | S -0.595 ± 0.075 | D -0.663 ± 0.12 | P -0.738 ± 0.17 | M -0.77 ± 0.17 | V -0.81 ± 0.12 | F -0.204 ± 0.12 | K -0.392 ± 0.085 | Q -0.698 ± 0.17 | W -0.779 ± 0.12 | L -0.807 ± 0.11
K63: Q -0.305 ± 0.075 | R -0.041 ± 0.032 | D -0.413 ± 0.12 | E -0.588 ± 0.087 | G -0.525 ± 0.044 | S -0.443 ± 0.072 | L -0.272 ± 0.059 | P -0.847 ± 0.21 | Y -0.37 ± 0.21 | N -0.519 ± 0.2 | W -0.772 ± 0.095 | T -0.11 ± 0.055 | I -0.321 ± 0.13 | H -0.027 ± 0.12 | C -0.641 ± 0.18 | A -0.306 ± 0.06
Q62: T -0.004 ± 0.061 | C -0.268 ± 0.072 | I 0.018 ± 0.074 | K 0.125 ± 0.051 | A 0.043 ± 0.045 | V 0.026 ± 0.034 | L -0.042 ± 0.039 | S 0.012 ± 0.041 | D -0.107 ± 0.057 | E 0.017 ± 0.059 | H 0.123 ± 0.081 | W -0.203 ± 0.047 | G -0.317 ± 0.05 | N -0.056 ± 0.087 | M -0.033 ± 0.051 | P -0.814 ± 0.33
N54: F 0.089 ± 0.08 | D 0.345 ± 0.059 | A 0.074 ± 0.045 | V 0.11 ± 0.041 | T 0.185 ± 0.05 | Y 0.112 ± 0.077 | R 0.036 ± 0.039 | K 0.183 ± 0.052 | P -0.003 ± 0.053 | W -0.088 ± 0.048 | G -0.007 ± 0.038 | C -0.267 ± 0.082 | S 0.136 ± 0.042 | H 0.067 ± 0.082 | E 0.217 ± 0.047 | I 0.233 ± 0.067 | M 0.216 ± 0.052 | Q 0.183 ± 0.06
V67: M -0.063 ± 0.054 | A -0.012 ± 0.043 | H -0.354 ± 0.24 | W -0.636 ± 0.16 | F -0.054 ± 0.088 | S -0.059 ± 0.052 | L -0.084 ± 0.043 | D -0.8 ± 0.22 | E -0.282 ± 0.067 | C -0.172 ± 0.081 | G -0.161 ± 0.056 | R -0.291 ± 0.057 | T -0.178 ± 0.055 | K 0.017 ± 0.054 | Q -0.035 ± 0.065 | Y -0.645 ± 0.2
E66: Y -0.136 ± 0.085 | D 0.096 ± 0.075 | I -0.092 ± 0.1 | N -0.028 ± 0.11 | T 0.008 ± 0.07 | V -0.032 ± 0.042 | C -0.153 ± 0.083 | G -0.014 ± 0.037 | L -0.039 ± 0.046 | F -0.036 ± 0.11 | A -0.105 ± 0.057 | Q -0.011 ± 0.057 | M 0.082 ± 0.05 | W -0.139 ± 0.054 | S -0.078 ± 0.047 | R 0.011 ± 0.034 | P -0.595 ± 0.13
T52: S 0.032 ± 0.042 | N 0.023 ± 0.078 | L 0.038 ± 0.037 | Q 0.027 ± 0.053 | V -0.021 ± 0.037 | E 0.123 ± 0.043 | G -0.029 ± 0.03 | F -0.188 ± 0.084 | K -0.015 ± 0.07 | R -0.745 ± 0.076 | I -0.053 ± 0.079 | C -0.451 ± 0.08 | D 0.046 ± 0.053 | M 0.02 ± 0.056 | W -0.047 ± 0.04 | H -0.397 ± 0.16
